From the supplement of paper PMC10065799, “High-throughput profiling of sequence recognition by tyrosine kinases and SH2 domains using bacterial peptide display” (eLife, 2023)

Molecular target: EPHB2 (UniProt P29323)
Experiment: phosphorylation enrichment, bacterial display (enrichment ratio); higher = better substrate or ligand; peptides without Tyr show the background
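Further: 11-residue human phosphosite peptides and single-mutation variants displayed on the E. coli surface, counted by deep sequencing, each peptide's frequency after selection divided by its frequency in the unselected input library; frequency after pTyr selection over input frequency; kinase dosed for 20-30% of maximal phosphorylation in three min.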

EPHB2, sequence (P29323 whole entry, looked up): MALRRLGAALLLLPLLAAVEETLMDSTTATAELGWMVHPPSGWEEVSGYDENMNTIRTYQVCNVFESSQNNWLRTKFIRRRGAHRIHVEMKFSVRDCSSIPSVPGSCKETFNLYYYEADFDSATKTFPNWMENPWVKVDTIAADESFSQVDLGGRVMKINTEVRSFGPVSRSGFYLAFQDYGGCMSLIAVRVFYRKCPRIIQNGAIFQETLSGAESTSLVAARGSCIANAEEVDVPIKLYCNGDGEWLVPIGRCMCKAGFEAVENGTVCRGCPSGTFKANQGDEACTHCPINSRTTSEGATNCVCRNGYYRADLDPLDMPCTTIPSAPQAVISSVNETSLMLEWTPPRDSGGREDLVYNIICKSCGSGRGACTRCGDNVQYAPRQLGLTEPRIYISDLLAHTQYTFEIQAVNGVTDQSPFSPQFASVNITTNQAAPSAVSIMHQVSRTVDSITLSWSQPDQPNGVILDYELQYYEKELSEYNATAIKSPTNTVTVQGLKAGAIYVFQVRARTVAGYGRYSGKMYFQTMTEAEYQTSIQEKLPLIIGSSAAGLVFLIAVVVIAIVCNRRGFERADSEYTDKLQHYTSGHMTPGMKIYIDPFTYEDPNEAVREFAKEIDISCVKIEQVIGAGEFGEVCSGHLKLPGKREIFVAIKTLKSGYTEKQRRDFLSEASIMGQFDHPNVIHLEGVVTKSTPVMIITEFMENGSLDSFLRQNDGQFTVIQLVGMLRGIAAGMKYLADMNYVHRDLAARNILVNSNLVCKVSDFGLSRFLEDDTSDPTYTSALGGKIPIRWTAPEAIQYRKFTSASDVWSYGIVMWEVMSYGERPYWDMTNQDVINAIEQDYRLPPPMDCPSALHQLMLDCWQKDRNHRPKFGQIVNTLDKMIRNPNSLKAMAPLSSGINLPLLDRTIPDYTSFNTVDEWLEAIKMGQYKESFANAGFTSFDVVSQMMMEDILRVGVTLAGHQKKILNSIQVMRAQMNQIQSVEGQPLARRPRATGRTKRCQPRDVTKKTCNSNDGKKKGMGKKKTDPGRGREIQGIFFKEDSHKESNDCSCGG

LVGTPYWMAPE [PAK5_Y608] was tested. Which phosphorylation enrichment did it give?
Its phosphorylation enrichment is 0.437.

Which phosphorylation enrichment does the source give for EEGNPSFSSAR [MCCC2_Y520_Y520S_YF] here?
The phosphorylation enrichment was 0.467.

Which phosphorylation enrichment does the source give for FPRAWYRRSIA [KIAA1109_Y4272] here?
Its phosphorylation enrichment is 0.468.

NSNSDYVDILP [SH2D1B_Y127_V130I] was tested. Which phosphorylation enrichment did it give?
Its phosphorylation enrichment is 3.01.

How did the phosphorylation enrichment turn out when PNKAVYTKMMT [G6PD_Y401_E398K] was run?
The phosphorylation enrichment was 0.519.

CTNIHYNFMCN [TP53_Y234_T231N_YF] was tested. Which phosphorylation enrichment did it give?
The phosphorylation enrichment was 0.597.

For QKINNYLTVPA [SLC9A1_Y683], which phosphorylation enrichment is on record?
Its phosphorylation enrichment is 0.706.

Which phosphorylation enrichment does the source give for FGYPGYQSKHY [TIMP3_Y177] here?
Its phosphorylation enrichment is 0.465.

How did the phosphorylation enrichment turn out when AKIDGYITSYR was run?
The phosphorylation enrichment was 0.51.

YRTGHYLCNAC [GATA1_Y223_D218Y] was tested. Which phosphorylation enrichment did it give?
The phosphorylation enrichment was 0.415.

With FHRQLYHKCTH [F12_Y58_YF] as the sequence, how does the phosphorylation enrichment read?
Its phosphorylation enrichment is 0.495.

Which phosphorylation enrichment does the source give for EQFELYCEMGS [CBL_Y371_YF] here?
The phosphorylation enrichment was 2.66.

Which phosphorylation enrichment does the source give for RMETAYGPSVT [MXRA5_Y2717_E2716A] here?
Its phosphorylation enrichment is 0.46.

For AADGRYEVLFL [SEMA3F_Y478], which phosphorylation enrichment is on record?
The phosphorylation enrichment was 0.683.

How did the phosphorylation enrichment turn out when RRFLFYFSFLL [PTEN_Y177_V175L_YF] was run?
Its phosphorylation enrichment is 0.608.

How did the phosphorylation enrichment turn out when CNNFICGGCRG [SPINT2_Y163_Y163C] was run?
Its phosphorylation enrichment is 0.515.

For LATINYPFEKG [NDUFS8_Y84_P79L], which phosphorylation enrichment is on record?
The phosphorylation enrichment was 0.484.

For SHSMRYFDTSV [HLA-C_Y31_A35S], which phosphorylation enrichment is on record?
The phosphorylation enrichment was 0.448.

ADKSAYLMGVN [MYH7_Y386_L390V] was tested. Which phosphorylation enrichment did it give?
Its phosphorylation enrichment is 0.466.

RTESQYQENRG [LRCH3_Y354_R350T] was tested. Which phosphorylation enrichment did it give?
Its phosphorylation enrichment is 0.414.

SRASFYRKGGC [ALK_Y1283_Y1278S_YF] was tested. Which phosphorylation enrichment did it give?
Its phosphorylation enrichment is 0.467.

Which phosphorylation enrichment does the source give for TMEDSYRKQVV [KRAS_Y40_I36M] here?
Its phosphorylation enrichment is 0.367.

For DAGTDYVGISC [FREM2_Y2061_R2066C], which phosphorylation enrichment is on record?
The phosphorylation enrichment was 0.619.

Which phosphorylation enrichment does the source give for SVVVPYETPEV [TP53_Y220_P222T] here?
The phosphorylation enrichment was 0.862.

With QSKGIYYVQLE [MGAT4B_Y262] as the sequence, how does the phosphorylation enrichment read?
Its phosphorylation enrichment is 0.872.

DYYDLYGGEKL [PTPN11_Y66_F71L] was tested. Which phosphorylation enrichment did it give?
The phosphorylation enrichment was 8.09.

How did the phosphorylation enrichment turn out when GLIPAYHWVIM [NMNAT1_Y64_R66W] was run?
The phosphorylation enrichment was 0.731.

How did the phosphorylation enrichment turn out when VTPVMYTFDEF [COL10A1_Y623_G618V_YF] was run?
The phosphorylation enrichment was 0.668.

KEEEDYREENN [BMS1_Y651_K652R] was tested. Which phosphorylation enrichment did it give?
Its phosphorylation enrichment is 0.528.

With PRRRFYVVACD [RNASE3_Y134_G130R] as the sequence, how does the phosphorylation enrichment read?
The phosphorylation enrichment was 0.701.

HAVFIYDICHV [TWNK_Y508_V507I_YF] was tested. Which phosphorylation enrichment did it give?
Its phosphorylation enrichment is 3.98.

With YKPGFYNLKEK [LAMA1_Y490_C485Y] as the sequence, how does the phosphorylation enrichment read?
The phosphorylation enrichment was 0.431.

With DFKIIYIAPMR [SNRNP200_Y540] as the sequence, how does the phosphorylation enrichment read?
Its phosphorylation enrichment is 0.486.

Molecular target: Fyn (UniProt P06241)
Sequence (P06241 whole entry, looked up): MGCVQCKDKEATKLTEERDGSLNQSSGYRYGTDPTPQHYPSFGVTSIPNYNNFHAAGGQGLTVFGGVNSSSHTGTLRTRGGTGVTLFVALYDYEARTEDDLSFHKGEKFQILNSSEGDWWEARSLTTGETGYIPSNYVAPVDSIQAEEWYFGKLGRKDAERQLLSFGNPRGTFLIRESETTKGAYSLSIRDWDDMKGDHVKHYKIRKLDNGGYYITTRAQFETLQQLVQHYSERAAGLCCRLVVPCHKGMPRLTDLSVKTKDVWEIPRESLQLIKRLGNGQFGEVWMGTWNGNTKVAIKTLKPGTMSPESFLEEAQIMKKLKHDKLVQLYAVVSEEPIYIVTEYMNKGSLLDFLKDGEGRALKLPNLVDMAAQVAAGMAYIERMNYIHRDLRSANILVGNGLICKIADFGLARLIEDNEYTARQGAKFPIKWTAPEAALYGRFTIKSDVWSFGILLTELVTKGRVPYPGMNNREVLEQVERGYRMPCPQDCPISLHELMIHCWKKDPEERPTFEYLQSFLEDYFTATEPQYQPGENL
Experiment: as above

For LVGTPYWMAPE [PAK5_Y608], which phosphorylation enrichment is on record?
Its phosphorylation enrichment is 0.683.

With EEGNPSFSSAR [MCCC2_Y520_Y520S_YF] as the sequence, how does the phosphorylation enrichment read?
Its phosphorylation enrichment is 0.42.

For FPRAWYRRSIA [KIAA1109_Y4272], which phosphorylation enrichment is on record?
The phosphorylation enrichment was 0.405.

Which phosphorylation enrichment does the source give for NSNSDYVDILP [SH2D1B_Y127_V130I] here?
The phosphorylation enrichment was 0.514.

With PNKAVYTKMMT [G6PD_Y401_E398K] as the sequence, how does the phosphorylation enrichment read?
The phosphorylation enrichment was 0.422.

Which phosphorylation enrichment does the source give for CTNIHYNFMCN [TP53_Y234_T231N_YF] here?
Its phosphorylation enrichment is 0.456.

QKINNYLTVPA [SLC9A1_Y683] was tested. Which phosphorylation enrichment did it give?
The phosphorylation enrichment was 0.508.

How did the phosphorylation enrichment turn out when FGYPGYQSKHY [TIMP3_Y177] was run?
The phosphorylation enrichment was 0.516.

With AKIDGYITSYR as the sequence, how does the phosphorylation enrichment read?
The phosphorylation enrichment was 0.433.

For YRTGHYLCNAC [GATA1_Y223_D218Y], which phosphorylation enrichment is on record?
The phosphorylation enrichment was 0.383.

FHRQLYHKCTH [F12_Y58_YF] was tested. Which phosphorylation enrichment did it give?
The phosphorylation enrichment was 0.371.

For EQFELYCEMGS [CBL_Y371_YF], which phosphorylation enrichment is on record?
Its phosphorylation enrichment is 1.43.

How did the phosphorylation enrichment turn out when RMETAYGPSVT [MXRA5_Y2717_E2716A] was run?
Its phosphorylation enrichment is 0.467.

For AADGRYEVLFL [SEMA3F_Y478], which phosphorylation enrichment is on record?
Its phosphorylation enrichment is 0.447.

RRFLFYFSFLL [PTEN_Y177_V175L_YF] was tested. Which phosphorylation enrichment did it give?
The phosphorylation enrichment was 0.567.

Which phosphorylation enrichment does the source give for CNNFICGGCRG [SPINT2_Y163_Y163C] here?
Its phosphorylation enrichment is 0.519.

LATINYPFEKG [NDUFS8_Y84_P79L] was tested. Which phosphorylation enrichment did it give?
The phosphorylation enrichment was 0.421.

Which phosphorylation enrichment does the source give for SHSMRYFDTSV [HLA-C_Y31_A35S] here?
The phosphorylation enrichment was 0.432.

ADKSAYLMGVN [MYH7_Y386_L390V] was tested. Which phosphorylation enrichment did it give?
The phosphorylation enrichment was 0.405.

For RTESQYQENRG [LRCH3_Y354_R350T], which phosphorylation enrichment is on record?
The phosphorylation enrichment was 0.578.

How did the phosphorylation enrichment turn out when SRASFYRKGGC [ALK_Y1283_Y1278S_YF] was run?
Its phosphorylation enrichment is 0.433.

For TMEDSYRKQVV [KRAS_Y40_I36M], which phosphorylation enrichment is on record?
The phosphorylation enrichment was 0.273.

How did the phosphorylation enrichment turn out when DAGTDYVGISC [FREM2_Y2061_R2066C] was run?
The phosphorylation enrichment was 0.522.

SVVVPYETPEV [TP53_Y220_P222T] was tested. Which phosphorylation enrichment did it give?
Its phosphorylation enrichment is 0.541.

For QSKGIYYVQLE [MGAT4B_Y262], which phosphorylation enrichment is on record?
Its phosphorylation enrichment is 2.5.

Which phosphorylation enrichment does the source give for DYYDLYGGEKL [PTPN11_Y66_F71L] here?
The phosphorylation enrichment was 5.27.

With GLIPAYHWVIM [NMNAT1_Y64_R66W] as the sequence, how does the phosphorylation enrichment read?
The phosphorylation enrichment was 0.503.

VTPVMYTFDEF [COL10A1_Y623_G618V_YF] was tested. Which phosphorylation enrichment did it give?
The phosphorylation enrichment was 0.737.

How did the phosphorylation enrichment turn out when KEEEDYREENN [BMS1_Y651_K652R] was run?
The phosphorylation enrichment was 0.5.

With PRRRFYVVACD [RNASE3_Y134_G130R] as the sequence, how does the phosphorylation enrichment read?
Its phosphorylation enrichment is 0.759.

HAVFIYDICHV [TWNK_Y508_V507I_YF] was tested. Which phosphorylation enrichment did it give?
Its phosphorylation enrichment is 3.92.

With YKPGFYNLKEK [LAMA1_Y490_C485Y] as the sequence, how does the phosphorylation enrichment read?
The phosphorylation enrichment was 0.421.

DFKIIYIAPMR [SNRNP200_Y540] was tested. Which phosphorylation enrichment did it give?
The phosphorylation enrichment was 0.522.
